Test results published in patent publication US20220073618A1 (NANJING GENSCRIPT BIOTECH, published 2022).

Tests used:
[1] = target: T1, human PD-L1 on cell surface (human, UniProt Q9NZQ7 19-290); assay: cell-based or functional assay
human PD-L1 protein [2] = target: T2, human PD-L1 protein (human, UniProt Q9NZQ7 19-238, limits assumed); assay: ELISA on human PD-L1 protein; antibody treated for 20 min (all overlapping curves)
Protocol: (§1) The antibody samples were treated for 20 min at various temperature gradients respectively, and then centrifuged to remove the pellet. Then the amount of remaining antibody was evaluated by ELISA. (The temperature gradient includes: room temperature, 30° C., 40° C., 50° C., 60° C., 70° C., […]) (FIG. 4)

biotin-labeled PD-L1-Fc [3] = target: T3, biotin-labeled PD-L1-Fc (human, UniProt Q9NZQ7 19-238, limits assumed, biotin-labeled (sites not given)); assay: ELISA: biotin-PD-L1-Fc binding to coated human PD-1 with titrated antibody; enhancement of PD-L1/PD-1 binding
T3 construct: not shown: Fc part
Protocol: (§2) The ELISA plate (Nunc) was coated with 100 μl/well of 0.5 μg/ml recombinant human PD-1 protein in PBS at 4° C. overnight. The plate was washed with PBS-T (0.05% Tween), and blocked with 200 μl/well of PBST containing 1% BSA at 37° C. for 0.5 hr. Then the blocking buffer was discarded, and 50 μl of 10 μg/ml purified antibody to be tested was added to the first test well. 3-fold serial dilutions were made, and a total of 11 test concentration gradients were given. […] The plate was washed 3 times with PBST, and incubated with 100 μl/well of Streptavidin-HRP (SA-HRP, GenScript) at 37° C. for 10 min. Finally, the plate was washed 5 times with PBST, and then a TMB developing solution (GenScript) was added and incubated at room temperature for 15 min in the dark. The reaction was terminated by adding 50 μl of 1M HCl stop solution (Sigma). The plate was read at 450 nm on a microplate reader.

biotin-labeled PD-L1-Fc [4] = target: T3, biotin-labeled PD-L1-Fc; assay: ELISA: biotin-PD-L1-Fc binding to coated human PD-1 with titrated antibody, OD 450 nm, fitted curve; enhancement
Protocol: as §2

[5] = target: T4, monkey PD-L1 on cell surface (monkey); assay: flow cytometry on CHO cells expressing monkey PD-L1, fitted curve
T4 construct: whole, on cells; also called monkey PD-L1 cell line; CHO cells overexpressing monkey PD-L1
Protocol: (§3) CHO cells expressing human or monkey PD-L1 and parent cells as a negative control were washed 3 times with PBS. 2.5×10⁵ detection cells and 100 μl of 3-fold serial dilutions of purified antibody with an initial concentration of 300 nM were added to a 96-well plate and incubated at 4° C. for 1 hr. […] Finally, the cells were washed 3 times with PBS, and the signal was read on FACS BD Calibur.
Moreover, CHO cells overexpressing monkey PD-L1 were used to test the cross-recognition binding to monkey PD-L1 by the antibodies.

[6] = target: T1, human PD-L1 on cell surface; assay: flow cytometry on CHO cells expressing human PD-L1, fitted curve
Protocol: as §3

human PD-L1 protein [7] = target: T2, human PD-L1 protein; assay: ELISA on the antigen (human PD-L1); antibody untreated (0), after oxidative stress (AAPH, 24 h) or deamidation stress (pH 9.0, 48 h); curves not told apart
[8] = target: T5, PD-L1-HIS recombinant protein (human, UniProt Q9NZQ7 19-238, limits assumed); assay: SPR (Biacore 8K), antibody captured on chip, PD-L1-HIS analyte 2.5-80 nM, 1:1 binding model
T5 construct: not shown: His tag
Protocol: The chip surface was equilibrated with HBS-EP buffer at a flow rate of 10 μl/min for 5 min, and then a 1:1 mixture of “NHS+EDC” was injected at a flow rate of 10 μl/min for 420 sec to activate the chip. The capture antibody (goat anti-murine IgG) diluted in 10 mM sodium acetate buffer was injected for about 420 sec at a flow rate of 10 μl/min for coupling, and finally ethanolamine was injected for 420 sec at a flow rate of 10 μl/min to block the surface.
Three pre-cycles were performed with the HBS-EP buffer as a sample to balance the chip to stabilize the baseline. The antibody diluted in HBS-EP buffer was injected for 30 sec at a flow rate of 10 μl/min (where the antibody-antigen binding signal was controlled to about 100 RU by adjusting the capture time between 0-5 min), and then the chip was equilibrated with the buffer for 1 min. The low-concentration antigen 2.5 nM PD-L1-HIS was injected at a flow rate of 30 μl/min for 240/300 seconds, to allow the antigen to bind to the antibody, and then the buffer was injected at a flow rate of 30 μl/min for 720/600 seconds for dissociation. 50 mM HCl were injected three times each for 15 s at a flow rate of 100 μl/min for regeneration, to complete one cycle. The antigen concentration was changed (such as 5 nM PD-L1-HIS) to carry out the cycle for measurement at a next gradient concentration until all gradient concentrations (2.5 nM, 5 nM, 10 nM, 20 nM, 40 nM, 80 nM PD-L1-HIS) and the replicate (such as 10 nM PD-L1-HIS) were tested.
The experimental data was double subtracted (minus the background values of the control channel and zero concentration), and fitted to the “1:1 binding” model in the Biacore 8K evaluation software. Biacore 8K was used to determine the affinity of the antibody to the PD-L1-HIS recombinant protein.

human PD-L1 protein [9] = target: T2, human PD-L1 protein; assay: ELISA on human PD-L1 protein; antibody treated for 20 min at 70 C
Protocol: as §1

human PD-L1 protein [10] = target: T2, human PD-L1 protein; assay: ELISA on human PD-L1 protein; antibody kept at 40 C for 0 (D0), 7 (D7) or 14 (D14) days
Protocol: The antibody samples were treated separately at 40° C., and then centrifuged to remove the pellet. Then the amount of remaining antibody was evaluated by ELISA. (test after treatment at 40° C. for 7 days (D7) and 14 days (D14) separately; for each test, the untreated sample (D0) stored at −80° C. is used as a control) (FIG. 3)

biotin-labeled PD-L1-Fc [11] = target: T3, biotin-labeled PD-L1-Fc; assay: flow cytometry: biotin-PD-L1-Fc binding to CHO cells expressing human PD-1 with titrated antibody; enhancement of PD-L1/PD-1 binding
Protocol: (§4) In the FACS test, CHO cells expressing human PD-1 and parent cells as a negative control were washed 3 times with PBS. 2.5×10⁵ detection cells and 50 μl of 3-fold serial dilutions of purified antibody with an initial concentration of 300 nM were added to a 96-well plate. […] Then the cells were washed 3 times with PBS, 100 μl of iFluor647-labeled streptavidin (1 μg/ml) was added, and the cells were incubated at 4° C. for 45 min. Finally, the cells were washed 3 times with PBS, and the signal was read on FACS BD Calibur.

biotin-labeled PD-L1-Fc [12] = target: T3, biotin-labeled PD-L1-Fc; assay: flow cytometry: biotin-PD-L1-Fc binding to CHO cells expressing human PD-1 with titrated antibody, fitted curve; enhancement
Protocol: as §4

T1 sequence (Q9NZQ7 19-290): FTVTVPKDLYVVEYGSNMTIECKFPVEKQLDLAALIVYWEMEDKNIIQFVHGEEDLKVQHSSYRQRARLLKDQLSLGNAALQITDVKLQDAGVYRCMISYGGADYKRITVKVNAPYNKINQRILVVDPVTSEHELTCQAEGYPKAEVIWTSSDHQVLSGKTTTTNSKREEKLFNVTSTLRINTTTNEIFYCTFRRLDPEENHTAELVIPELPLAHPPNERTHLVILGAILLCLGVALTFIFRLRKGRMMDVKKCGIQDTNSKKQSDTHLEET
T2 sequence (Q9NZQ7 19-238 limits assumed): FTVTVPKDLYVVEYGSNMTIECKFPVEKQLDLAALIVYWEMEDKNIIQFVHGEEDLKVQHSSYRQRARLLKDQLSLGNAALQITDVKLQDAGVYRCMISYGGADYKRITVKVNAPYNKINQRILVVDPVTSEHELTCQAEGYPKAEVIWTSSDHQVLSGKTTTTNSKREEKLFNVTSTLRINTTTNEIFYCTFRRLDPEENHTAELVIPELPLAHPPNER
T5 sequence (Q9NZQ7 19-238 limits assumed): as above
T3 sequence (Q9NZQ7 19-238 limits assumed): as above

- Bottom (best-fit value) of IL-2 release, mixed lymphocyte reaction [1]: 1350
- EC50 (µg/ml) of IL-2 release, mixed lymphocyte reaction [1]: 0.0293 µg/mL
- LogEC50 (best-fit value) of IL-2 release, mixed lymphocyte reaction [1]: -1.53
- Span (best-fit value) of IL-2 release, mixed lymphocyte reaction [1]: 1020
- Top (best-fit value) of IL-2 release, mixed lymphocyte reaction [1]: 2370
- EC50 (read off the curve) (human PD-L1 protein [2]): ~0.01 µg/mL
- EC50 (biotin-labeled PD-L1-Fc [3]): 0.017 µg/mL
- LogEC50 (biotin-labeled PD-L1-Fc [4]): 1.23
- EC50 [5]: 3.4 nM
- LogEC50 [5]: 0.532
- EC50 [6]: 0.478 nM
- LogEC50 [6]: -0.321
- EC50 (read off the curve) (human PD-L1 protein [7]): ~0.02 µg/mL
- Kd [8]: 1.57 nM
- koff [8]: 0.000334 s⁻¹
- kon [8]: 213000 M⁻¹ s⁻¹
- EC50 (read off the curve) (human PD-L1 protein [9]): ~0.04 µg/mL
- EC50 (read off the curve) (human PD-L1 protein [10]): ~0.01 µg/mL
- EC50 (biotin-labeled PD-L1-Fc [11]): 38.7 nM
- LogEC50 (biotin-labeled PD-L1-Fc [12]): 1.59
B1: AH02029 (antibody, human IgG1, V domains shown)
VH: QVQLQESGPGLVKPSQTLSLTCTVTGYSITSGYTWHWIRQHPGKGLEWIGYIHYSGSTKYNPSLKSRVSISRDTSKNQFSLKLSSVTAADTAVYYCARNSLFASWGQGTLVTVSS
VL: DIVLTQSPDSLAVSLGERATINCRASESVDTYGDSFMHWYQQKPGQPPKLLIYRASNLESGVPDRFSGSGSGTDFTLTISSLQAEDVAVYYCQQSNEAPYTFGGGTKLEIK
notes: also called mPD-L1Ab-5BM clone AH02029
